The values below are quoted from earlier work in publication PMC4184475.

Data set [1] concerns the target Cys473 (UniProt position 487, ILIFHCEFSSE). To be noted: reduced thiol form (implied); otherwise not stated.
Data set [2] addresses Cys106 (UniProt position 106, LIAAICAGPTA). The conditions noted are these: reduced thiol form (implied); otherwise not stated.

As usually defined, the pKa is the pH at which an ionisable group is half protonated. Regarding “Cdc25B phosphatase (M-phase inducer phosphatase 2) (Homo sapiens)”, the pKa in data set [1] is reported as 5.8.
For “DJ-1 (Parkinson disease protein 7) (Homo sapiens)”, in data set [2], the pKa was 5.4.
